Source: US7452965B2, “Colon tumor specific binding peptides” (University of Utah Research Foundation, priority 2002, dated 2008)

How the values were obtained:
HT29 cells [1] = assay: Protease assay: RPM phage binding to protease-treated cells; details: 37° C.
Method: HT29 cells were incubated at 37° C. with either active or boiled Collagenase diluted 1:20 for 10 minutes, Trypsin-EDTA 0.25% (Gibco) for 5 minutes or Proteinase K (Gibco) diluted 1:600 for 1 minute. After incubation, cells were then incubated with RPM bearing phage as described above. The number of phage remaining bound was quantified by real time PCR.
(§1) In order to further this observation, HT29 cells were treated with active or boiled proteases to determine the effect of treatment on the ability of an RPM displaying phage to bind. HT29 cells were treated with active or boiled collagenase for 15 minutes, trypsin for 5 minutes, or proteinase K for 0.5 minutes at 37° C. After protease treatment, cells were washed, then an equal number of phage were added and allowed to bind. […] The decrease in phage binding to the HT29 cells was due to the protease activity since boiling the proteases abolished the effect with phage binding returning to levels of that observed for PBS treated cells (FIG. 6B). […] After treating HT29 cells with proteases as described above, MTT was added to the cells and incubated for 45 minutes at 37° C. After incubation, the cells were solubilized with 0.1N HCl in isopropanol and the absorbance due to MTT incorporation was determined.

HT29 cells [2] = assay: MTT viability of protease-treated cells; assay type: cell-based; details: MTT 45 minutes at 37° C. after protease treatment
Method: as §1

B1: proteinase K: protease used to treat HT29 cells (protein, UniProt P06873 106-384, looked up)
Proteinase K: AAQTNAPWGLARISSTSPGTSTYYYDESAGQGSCVYVIDTGIEASHPEFEGRAQMVKTYYYSSRDGNGHGTHCAGTVGSRTYGVAKKTQLFGVKVLDDNGSGQYSTIIAGMDFVASDKNNRNCPKGVVASLSLGGGYSSSVNSAAARLQSSGVMVAVAAGNNNADARNYSPASEPSVCTVGASDRYDRRSSFSNYGSVLDIFGPGTSILSTWIGGSTRSISGTSMATPHVAGLAAYLMTLGKTTAASACRYIADTANKGDLSNIPFGTVNLLAYNNYQA
decrease of RPM phage binding to active protease treated HT29 cells (HT29 cells [1]): 90% | average absorbance (MTT incorporation) of treated cells (HT29 cells [2]): 0.183
